55 variants from the Human Domainome abundance scans (Beltran et al. 2025) can be followed below.

± gives the uncertainty stated by the source.

The labels stand for the following.
B1: Cell division cycle and apoptosis regulator protein 1, residues 625 to 674; numbered along this chain, Q8IX12 (parent)
chain: ISTPTHWSKLDPKTMKVNDLRKELESRALSSKGLKSQLIARLTKQLKVEE
B2: Tripartite motif-containing protein 6, residues 93 to 134; numbered along this chain, Q9C030 (parent)
chain: KAVLCADHGEKLQLFCQEDGKVICWLCERSQEHRGHHTFLVE

The variants in the first data set derive from B1. Nature of the data set: abundance fitness (aPCA) (normalised: wild type 0, dead -1); higher = more abundant; growth selection in yeast, the domain comes from the species named. To be noted: Homo sapiens.
In the case of ISTPTHWSKLDPKTMKVNDLRKELESRALSSKGLKSQLIARLTKQLNVEE [K47N], the abundance fitness was -0.106 ± 0.046.

ISTPTHWSKLDPKTMKVNDLRKELESRALSSKGLKSQLIARLTKQLCVEE [K47C]: the abundance fitness is -0.265 ± 0.058. With ISTPTHWSKLDPKTMKVNDLRKELESRALSSKGLKSQLIARLTKQLWVEE [K47W], the abundance fitness was -0.334 ± 0.053. With ISTPTHWSKLDPKTMKVNDLRKELESRALSSKGLKSQLIARLTKQLYVEE [K47Y], the abundance fitness was -0.261 ± 0.057. Still for that read-out and setting: the result for ISTPTHWSKLDPKTMKVNDLRKELESRALSSKGLKSQLIARLTKQLLVEE [K47L] reads -0.151 ± 0.036. On to ISTPTHWSKLDPKTMKVNDLRKELESRALSSKGLKSQLIARLTKQLKVKE [E49K], for which the abundance fitness was -1.19 ± 0.22. In the case of ISTPTHWSKLDPKTMKVNDLRKELESRALSSKGLKSQLIARLTKQLKVLE [E49L], the abundance fitness was -0.983 ± 0.043. Regarding ISTPTHWSKLDPKTMKVNDLRKELESRALSSKGLKSQLIARLTKQLKVAE [E49A], the abundance fitness was -0.867 ± 0.053.

Take ISTPTHWSKLDPKTMKVNDLRKELESRALSSKGLKSQLIARLTKQLKVWE [E49W]: the abundance fitness is -1 ± 0.11. The same measure, in the same setting: for ISTPTHWSKLDPKTMKVNDLRKELESRALSSKGLKSQLIARLTKQLKVDE [E49D] the value was -0.41 ± 0.048; for ISTPTHWSKLDPKTMKVNDLRKELESRALSSKGLKSQLIARLTKQLKVVE [E49V], -0.906 ± 0.067. With ISTPTHWSKLDPKTMKVNDLRKELESRALSSKGLKSQLIARLTKQLKVYE [E49Y], the abundance fitness was -1.21 ± 0.32. As to ISTPTHWSKLDPKTMKVNDLRKELESRALSSKGLKSQLIARLTKQLKVPE [E49P], the abundance fitness was -0.86 ± 0.068. On the same count and under the same terms, the result for ISTPTHWSKLDPKTMKVNDLRKELESRALSSKGLKSQLIARLTKQLKVME [E49M] reads -0.937 ± 0.056. The same measure, in the same setting: the result for ISTPTHWSKLDPKTMKVNDLRKELESRALSSKGLKSQLIARLTKQLKVRE [E49R] reads -0.935 ± 0.046; that for ISTPTHWSKLDPKTMKVNDLRKELESRALSSKGLKSQLIARLTKQLKVGE [E49G], -0.919 ± 0.044; that for ISTPTHWSKLDPKTMKVNDLRKELESRALSSKGLKSQLIARLTKQLKVQE [E49Q], -0.592 ± 0.056. On the same count and under the same terms, for ISTPTHWSKLDPKTMKVNDLRKELESRALSSKGLKSQLIARLTKQLKVIE [E49I] the value was -0.943 ± 0.19. Turning to ISTPTHWSKLDPKTMKVNDLRKELESRALSSKGLKSQLIARLTKQLKVNE [E49N], the abundance fitness was -0.909 ± 0.12. In the case of ISTPTHWSKLDPKTMKVNDLRKELESRALSSKGLKSQLIARLTKQLKVCE [E49C], the abundance fitness is -0.606 ± 0.089.

The next data set covers variants of B2. The data set is described as above. To be noted: Homo sapiens.
With KAELCADHGEKLQLFCQEDGKVICWLCERSQEHRGHHTFLVE [V3E], the abundance fitness is -0.067 ± 0.09. Consider KAALCADHGEKLQLFCQEDGKVICWLCERSQEHRGHHTFLVE [V3A], for which the abundance fitness was -0.007 ± 0.054. As for KACLCADHGEKLQLFCQEDGKVICWLCERSQEHRGHHTFLVE [V3C], the abundance fitness came out at 0.098 ± 0.13. Turning to NAVLCADHGEKLQLFCQEDGKVICWLCERSQEHRGHHTFLVE [K1N], the abundance fitness is -0.296 ± 0.22. The same measure, in the same setting: for AAVLCADHGEKLQLFCQEDGKVICWLCERSQEHRGHHTFLVE [K1A] the value was -0.273 ± 0.17; for RAVLCADHGEKLQLFCQEDGKVICWLCERSQEHRGHHTFLVE [K1R], -0.296 ± 0.053.

On to VAVLCADHGEKLQLFCQEDGKVICWLCERSQEHRGHHTFLVE [K1V], for which the abundance fitness was -0.191 ± 0.083. With QAVLCADHGEKLQLFCQEDGKVICWLCERSQEHRGHHTFLVE [K1Q], the abundance fitness was -0.32 ± 0.23.

Turning to SAVLCADHGEKLQLFCQEDGKVICWLCERSQEHRGHHTFLVE [K1S], the abundance fitness is -0.142 ± 0.11. GAVLCADHGEKLQLFCQEDGKVICWLCERSQEHRGHHTFLVE [K1G]: the abundance fitness was -0.193 ± 0.043. Regarding MAVLCADHGEKLQLFCQEDGKVICWLCERSQEHRGHHTFLVE [K1M], the abundance fitness is -0.156 ± 0.082.

On to DAVLCADHGEKLQLFCQEDGKVICWLCERSQEHRGHHTFLVE [K1D], for which the abundance fitness worked out at 0.292 ± 0.18. Regarding FAVLCADHGEKLQLFCQEDGKVICWLCERSQEHRGHHTFLVE [K1F], the abundance fitness is -0.36 ± 0.2. For LAVLCADHGEKLQLFCQEDGKVICWLCERSQEHRGHHTFLVE [K1L], the abundance fitness was -0.439 ± 0.086. Consider TAVLCADHGEKLQLFCQEDGKVICWLCERSQEHRGHHTFLVE [K1T], for which the abundance fitness was -0.255 ± 0.42. On the same count and under the same terms, the result for YAVLCADHGEKLQLFCQEDGKVICWLCERSQEHRGHHTFLVE [K1Y] reads -0.01 ± 0.17. Turning to EAVLCADHGEKLQLFCQEDGKVICWLCERSQEHRGHHTFLVE [K1E], the abundance fitness was found to be 0 ± 0.055. In the case of CAVLCADHGEKLQLFCQEDGKVICWLCERSQEHRGHHTFLVE [K1C], the abundance fitness is -0.698 ± 0.2. On the same count and under the same terms, for WAVLCADHGEKLQLFCQEDGKVICWLCERSQEHRGHHTFLVE [K1W] the value was -0.722 ± 0.14; for KEVLCADHGEKLQLFCQEDGKVICWLCERSQEHRGHHTFLVE [A2E], 0.195 ± 0.055; for KIVLCADHGEKLQLFCQEDGKVICWLCERSQEHRGHHTFLVE [A2I], -0.018 ± 0.12. In the case of KSVLCADHGEKLQLFCQEDGKVICWLCERSQEHRGHHTFLVE [A2S], the abundance fitness came out at 0.045 ± 0.063. Regarding KGVLCADHGEKLQLFCQEDGKVICWLCERSQEHRGHHTFLVE [A2G], the abundance fitness was found to be 0.198 ± 0.045. On the same count and under the same terms, the result for KWVLCADHGEKLQLFCQEDGKVICWLCERSQEHRGHHTFLVE [A2W] reads -0.04 ± 0.052; that for KNVLCADHGEKLQLFCQEDGKVICWLCERSQEHRGHHTFLVE [A2N], 0.066 ± 0.27; that for KTVLCADHGEKLQLFCQEDGKVICWLCERSQEHRGHHTFLVE [A2T], 0.136 ± 0.046. As to KKVLCADHGEKLQLFCQEDGKVICWLCERSQEHRGHHTFLVE [A2K], the abundance fitness stood at 0.133 ± 0.068. For KDVLCADHGEKLQLFCQEDGKVICWLCERSQEHRGHHTFLVE [A2D], the abundance fitness was -0.031 ± 0.14.

As to KCVLCADHGEKLQLFCQEDGKVICWLCERSQEHRGHHTFLVE [A2C], the abundance fitness was -0.167 ± 0.089. KMVLCADHGEKLQLFCQEDGKVICWLCERSQEHRGHHTFLVE [A2M]: the abundance fitness worked out at 0.264 ± 0.061.

As for KPVLCADHGEKLQLFCQEDGKVICWLCERSQEHRGHHTFLVE [A2P], the abundance fitness was -0.071 ± 0.063.

In the case of KYVLCADHGEKLQLFCQEDGKVICWLCERSQEHRGHHTFLVE [A2Y], the abundance fitness was -0.153 ± 0.11.

For the variant KVVLCADHGEKLQLFCQEDGKVICWLCERSQEHRGHHTFLVE [A2V], the abundance fitness worked out at 0.065 ± 0.051. The same measure, in the same setting: the result for KLVLCADHGEKLQLFCQEDGKVICWLCERSQEHRGHHTFLVE [A2L] reads -0.013 ± 0.06. As to KRVLCADHGEKLQLFCQEDGKVICWLCERSQEHRGHHTFLVE [A2R], the abundance fitness turned out to be 0.067 ± 0.047.
